The text below walks through data of US20200339684A1 (published 2020).

By Kd is commonly meant the equilibrium constant for the complex coming apart. For orientation: koff means the first-order rate constant of dissociation. One may read the kon as the second-order rate constant of association.

For test [1], the target named is T1, human CD83 on the cell surface (KM-H2, L428, FDCP1 and BB88 cells transfected with full length human CD83) (human, UniProt Q01151 20-205).
T1 sequence (looked up): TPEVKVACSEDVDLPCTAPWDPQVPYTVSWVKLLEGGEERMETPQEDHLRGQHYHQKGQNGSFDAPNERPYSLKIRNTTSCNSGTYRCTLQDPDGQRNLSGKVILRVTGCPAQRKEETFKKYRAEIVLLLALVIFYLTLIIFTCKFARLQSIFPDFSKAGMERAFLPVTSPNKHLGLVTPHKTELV
The test can be described thus: cell-based or functional assay.

Test [2] addresses T2, recombinant human CD83 extracellular domain with His tag (hCD83ECD-His) (human, UniProt Q01151 20-144).
T2 construct: extracellular domain; Expressed in CHO cells and purified by IMAC; also called recombinant human CD83ECD-His; recombinant CD83; not shown: His tag
T2 sequence (looked up): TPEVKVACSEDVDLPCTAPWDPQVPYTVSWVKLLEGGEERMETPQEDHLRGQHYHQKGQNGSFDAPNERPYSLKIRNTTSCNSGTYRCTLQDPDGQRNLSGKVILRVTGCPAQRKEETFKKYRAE
The experiment in a line: BiaCore SPR, Fab over immobilised hCD83ECD, 1:1 model with mass transfer. On the procedure:
(§1) Fab fragments were generated by papain digestion with Pierce Fab MicroFab Preparation Kit, as per the manufacturer's instructions except that the kit-provided Protein A resin was replaced with MAbSelect SuRE resin (Seldon et al., J. Biomol. Tech. 22: 50-2, 2011). Fab were diluted in HBS-EP buffer consisting of 10 mM Hepes, 150 mM Sodium Chloride, 3 mM EDTA, and 0.005% Polysorbate 20 (GE Healthcare). Diluted Fab were assessed for affinity using a BiaCore3000 (GE Healthcare) instrument equipped with a CMS chip coupled with 100 Resonance Units (RU) of hCD83ECD-His protein, using the Kinetic Analysis wizard protocol. Kinetic rates were estimated using BiaEvaluation Software (GE Healthcare) using the inbuilt 1:1 binding model with mass transfer limitations.
(§2) FIG. 7A graphically highlights these improvements of 3C12.C binding relative to 3C12.WT, as higher binding signal intensity (i.e., RU) is achieved using reduced concentrations of the VL shuffled variant during the […] Kₒₙ-dependent Association Phase. Similarly, a slower off-rate is observed for 3C12.C Fab during the Koff-dependent dissociation phase.

Test [3] has as its target T2, recombinant human CD83 extracellular …. The test can be described thus: BiaCore SPR, Fab over immobilised hCD83ECD. On the procedure: as §1
For orientation: SPR reads the build-up and loss of mass on a sensor chip optically.

The target is the same in test [4]. The experiment in a line: Biacore SPR, Fab. On the procedure: as §1, §2

B1: 3C12.C IgG (affinity matured, VL shuffled variant of 3C12, human IgG1 kappa) (antibody, V domains shown)
VH: EVQLQESGGGVVQPGRSLRLSCAASGFTFSSYAMHWVRQAPGKGLEWVAVISYDGSNKYYADSVKGRFTISRDNSKNTLYLQMNSLRAEDTAMYYCARHYYYGMDVWGQGTTLTVSS
VL: EIVLTQSPSSLSASVGDRVTITCRASQGIRNYLAWYQQKPGKVPKLLIYATSTLQSGVPSRFSGSRSGTEFTLTISSLHPEDFATYYCQQVDRFPYTFGQGTKVELKR
Regarding B1, the “ADCC potency in a chromium release assay, fold against 3C12.WT” value in test [1] was more than 25 fold.

B2: 3C12.C Fab fragment (Fab, V domains shown)
VH: EVQLQESGGGVVQPGRSLRLSCAASGFTFSSYAMHWVRQAPGKGLEWVAVISYDGSNKYYADSVKGRFTISRDNSKNTLYLQMNSLRAEDTAMYYCARHYYYGMDVWGQGTTLTVSS
VL: EIVLTQSPSSLSASVGDRVTITCRASQGIRNYLAWYQQKPGKVPKLLIYATSTLQSGVPSRFSGSRSGTEFTLTISSLHPEDFATYYCQQVDRFPYTFGQGTKVELKR
With B2, in test [2], the dissociation constant (Kd) amounted to 6.1 nM, the koff worked out at 0.0078 s⁻¹ and the kon is 1.3e+06 M⁻¹ s⁻¹.

B3: 3C12.WT Fab fragment (Fab, V domains shown)
VH: EVQLQESGGGVVQPGRSLRLSCAASGFTFSSYAMHWVRQAPGKGLEWVAVISYDGSNKYYADSVKGRFTISRDNSKNTLYLQMNSLRAEDTAMYYCARHYYYGMDVWGQGTTLTVSS
VL: EIVMTQSPSLLSASLGDRVTITCRASQGIKNYFAWYQQRPGKAPKLLIYATSNLQSGVPSRFSGSGSGTEFTLTISSLQPEDFATYYCQQLGAYPLTFGGGTKLELKR
notes: also called 3C12 Fab; wildtype 3C12 Fab
Turning to B3, in test [2], the equilibrium dissociation constant (Kd) was 130 nM, the off-rate constant (koff) amounted to 0.12 s⁻¹ and the kon stood at 900000 M⁻¹ s⁻¹. Also, in test [3], the Kd was determined as 130 nM, the koff is 0.12 s⁻¹ and the kon amounted to 950000 M⁻¹ s⁻¹.

B4: 3C12.B Fab fragment (Fab, V domains shown)
VH: EVQLQESGGGVVQPGRSLRLSCAASGFTFSSYAMHWVRQAPGKGLEWVAVISYDGSNKYYADSVKGRFTISRDNSKNTLYLQMNSLRAEDTAMYYCARHYYYGMDVWGQGTTLTVSS
VL: EVVMTQSPSFLSASIGDRVSITCRTSQGISNHLAWYQQKPGKAPKLLIYAASSLQSGVPSRFSGSGSGTDFTLTISSLQPEDIATYYCQQVNSYPYTFGQGTRLELKR
In the case of B4, in test [2], the Kd was found to be 43 nM, the off-rate (koff) turned out to be 0.014 s⁻¹ and the kon is 320000 M⁻¹ s⁻¹. Besides, in test [4], the “fold reduction in on-rate relative to 3C12 wildtype” value is approximately 3 fold.

B5: 3C12.Kif IgG (3C12 produced in the presence of kifunensine, low-fucose IgG) (antibody, V domains shown)
VH: EVQLQESGGGVVQPGRSLRLSCAASGFTFSSYAMHWVRQAPGKGLEWVAVISYDGSNKYYADSVKGRFTISRDNSKNTLYLQMNSLRAEDTAMYYCARHYYYGMDVWGQGTTLTVSS
VL: EIVMTQSPSLLSASLGDRVTITCRASQGIKNYFAWYQQRPGKAPKLLIYATSNLQSGVPSRFSGSGSGTEFTLTISSLQPEDFATYYCQQLGAYPLTFGGGTKLELKR
modifications: N-glycan without fucose (high mannose, predominantly GlcNAc2Man9), produced with 2 µg/mL kifunensine
Regarding B5, the “ADCC potency in a chromium release assay, fold against 3C12.WT” value in test [1] is more than 25 fold.

B6: 3C12.D Fab fragment (Fab, V domains shown)
VH: EVQLQESGGGVVQPGRSLRLSCAASGFTFSSYAMHWVRQAPGKGLEWVAVISYDGSNKYYADSVKGRFTISRDNSKNTLYLQMNSLRAEDTAMYYCARHYYYGMDVWGQGTTLTVSS
VL: EIQMTQSPSSLSASVGDRVTITCRASQGISSWLAWYQQKPGKAPKLLIYAASSLQSGVPSRFSGSGSGTEFTLTISSLQPDDFATYYCQKLSSYPYTFGGGTKVELKR
With B6, in test [2], the Kd was 25 nM, the dissociation rate constant (koff) worked out at 0.027 s⁻¹ and the on-rate constant (kon) was found to be 1.1e+06 M⁻¹ s⁻¹.

B7: 3C12.E Fab fragment (Fab, V domains shown)
VH: EVQLQESGGGVVQPGRSLRLSCAASGFTFSSYAMHWVRQAPGKGLEWVAVISYDGSNKYYADSVKGRFTISRDNSKNTLYLQMNSLRAEDTAMYYCARHYYYGMDVWGQGTTLTVSS
VL: EIVLTQSPSSLSASVGDRVTITCRASQGISNYLAWYQQKPGKVPKLLIYAASTLQSGVPSRFSGSGSGTHFTLTISSLQPEDVATYYCQKCNSAPYTFGQGTKVELKR
Regarding B7, in test [2], the equilibrium dissociation constant (Kd) was determined as 42 nM, the koff came out at 0.05 s⁻¹ and the kon turned out to be 1.2e+06 M⁻¹ s⁻¹.
